In one experiment the target is EGFP-vinculin (UniProt P18206). The experiment is described as follows: FRET or BRET; multiphoton TCSPC-FLIM of the donor on vinculin (EGFP or mTFP1) with mScarlet-I on RIAM as acceptor; transiently transfected MEF Vinc-/- fixed in 4% PFA; also with the ROCK inhibitor H1152 (no change).
In a further experiment the target is mTFP1-vinculin (UniProt P18206). The description is as above.

These results are taken from publication PMC12828031.

As to “RIAM-mScarlet (RIAM C-terminally tagged with mScarlet-I) (from UniProt Q7Z5R6 1-666) (natural protein)”, the FRET efficiency with EGFP-vinculin is 13.5%.
Regarding “mScarlet-RIAM (RIAM N-terminally tagged with mScarlet-I) (from UniProt Q7Z5R6 1-666) (natural protein)”, the FRET efficiency with EGFP-vinculin is 16.4%; in the experiment with mTFP1-vinculin it was 20%.
